Patent US20190248902A1 (published 2019)
Where a chain is given by its changes, count along the chain named. One block for each binder: values may come before it.

Legend:
[1] = biological target: T1, recombinant, soluble human ASGR-1 (human, UniProt P07306 62-291); assay: Octet BLI dissociation, pH 5.6 minus calcium
T1 construct: biotinylated in the binning assay; also called soluble huASGR-1; Soluble ASGR-1 (Amgen)
T1 sequence: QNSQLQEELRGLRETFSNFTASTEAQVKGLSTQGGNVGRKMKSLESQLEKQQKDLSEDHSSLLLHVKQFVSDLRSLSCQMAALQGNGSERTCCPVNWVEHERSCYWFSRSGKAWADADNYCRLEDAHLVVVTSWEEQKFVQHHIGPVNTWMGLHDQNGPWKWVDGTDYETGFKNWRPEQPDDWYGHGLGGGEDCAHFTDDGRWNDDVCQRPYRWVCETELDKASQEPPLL
Description: (§1) The relative dissociation of ASGR-1 from antibodies was measured using a label-free assay on an OctetHTX instrument (Fortebio). Antibody samples were captured on anti-HuFc kinetic biosensors (ForteBio cat #18-5064) at 5 ug/mL in assay buffer (10 mM Tris, 0.1% Triton, 150 mM NaCl, 1 mg/mL BSA, 1 mM CaCl2, pH7.4) for three minutes. A one minute baseline stabilization step was performed in assay buffer. Soluble ASGR-1 (Amgen) at 6 ug/ml in assay buffer was added and association to the antibodies was monitored for two minutes. Subsequent dissociation of ASGR-1 from the antibodies was performed by incubating the ASGR-1-mAb complexes for 10 minutes under each of the following conditions:
(§2) The binding signal at the end of the 2 minute association phase for each dissociation experiment was set to 100% and used to represent the maximal level of ASGR-1 binding. After 1 minute of dissociation, the percentage of ASGR-1 remaining bound was calculated. The lower the percent remaining at a given time point indicates increased levels of dissociation in response to the test conditions (ie. different pH and/or calcium concentrations). The change in the percentage of ASGR-1 remaining bound in response to each test condition relative to the percent remaining in the control conditions (ie. pH 7.4+calcium) was determined. Cut-offs for an antibody to be categorized as being sensitive to a particular condition were set to >10% (ie. if >10% of the ASGR-1 dissociates from the antibody under a particular test condition compared to control condition, it was deemed sensitive to that condition). The analysis was done using the 1 minute dissociation time point (except for mAb 149A1 which was binned based on the 4 minute dissociation time point). Using this analysis, the ASGR-1-binding, receptor-ligand blocking antibodies were separated into groups according to their dissociation profiles in response to pH and calcium (Table 7.3). Antibodies belonging to each category were observed.

[2] = biological target: T1, recombinant, soluble human ASGR-1; assay: Octet BLI dissociation, pH 7.4 minus calcium
Description: as §1, §2

[3] = biological target: T1, recombinant, soluble human ASGR-1; assay: Octet BLI dissociation, pH 5.6 plus calcium
Description: as §1, §2

B2: 64B12 (antibody, V domains shown)
VH: QLQLQESGPGLVKPSETLSLTCTVSGVSISRSSYYWGWIRQPPGKGLEWIGSIYYSGSTSYNPSLKSRVTISVDTSKNQFSLKLSSVTAADTAVYYCARLDSGWSFDYWGQGTLVTVSS
VL: DIQMTQSPSSLSASVGDRVTITCRASQDISNYLNWYQQKPGTAPNLLISDASILETGVPSTFSGSGSGTDFTFTISSLQPEDIATYYCQQSDNLPCSFGQGTKVEIK
notes: hybridoma mAb
- % Change Compared to pH 7.4 + Calcium [1]: 7%
- % Change Compared to pH 7.4 + Calcium [2]: 6%
- % Change Compared to pH 7.4 + Calcium [3]: 6%

B3: 63A10 (antibody, V domains shown)
VH: EVQLVESGGGLVQPGGSLRLSCAASGFTFSSYSMNWVRQAPGKGLEWVSYISSSTSTIYYAASVKGRFTISRDNAKNSLYLQMNSLRDEDTAVYYCARDHRYYDSSGYYSDAFDIWGQGTMVTVSS
VL: NFMLTQPHSVSESPGKTVTISCTRSNGSIVSNYVQWYQQRPGSSPTTVIYEDKRRPSGVPDRFSGSIDSSSNSASLTISGLKTEDEADYYCQSYDSINVVFGGGTKLTVL
notes: hybridoma mAb
- % Change Compared to pH 7.4 + Calcium [1]: 47%
- % Change Compared to pH 7.4 + Calcium [2]: 8%
- % Change Compared to pH 7.4 + Calcium [3]: 3%

B4: 63G7 (antibody, V domains shown)
VH: B3 VH
VL: B3 VL with V48M, K53S, Y90S, S96G
notes: hybridoma mAb
- % Change Compared to pH 7.4 + Calcium [1]: 59%
- % Change Compared to pH 7.4 + Calcium [2]: 20%
- % Change Compared to pH 7.4 + Calcium [3]: 15%

B8: 5E5 (antibody, V domains shown)
VH: QVQLVESGGGVVQPGRSLRLSCAASGFTFSNYVMHWVRQAPGKGLEWVAVIWYDGSNKYYADSVKGRFTISRDNSKNTLYLQMNSLRAEDTAVYYCTREVYSSGWYDYGMDVWGQGTTVTVSS
VL: DIQMTQSPSSLSASVGDRVTITCRASQGIRNDLGWYQQKPGKAPKRLIYAASSLQSGVPSRFSGSGSGTEFTLTISSLQPEDFATYYCLQHYSYPRTFGQGTKVEVK
notes: hybridoma mAb
- % Change Compared to pH 7.4 + Calcium [1]: 42%
- % Change Compared to pH 7.4 + Calcium [2]: 7%
- % Change Compared to pH 7.4 + Calcium [3]: 18%

B9: 60E8 (antibody, V domains shown)
VH: B2 VH with L2V, K13R, E16A, V27G, T59A, K77E, K83R
VL: B8 VL with I21F, Y36F, Y92S, R96L, Q100G, V106I
notes: hybridoma mAb
- % Change Compared to pH 7.4 + Calcium [1]: 18%
- % Change Compared to pH 7.4 + Calcium [2]: 3%
- % Change Compared to pH 7.4 + Calcium [3]: 11%

B10: 7G4 (antibody, V domains shown)
VH: B8 VH with S30N, N84T, T97A, V100K, G104N
VL: B8 VL with K39R, F83S, Q90H, H91Q, V106I
notes: hybridoma mAb
- % Change Compared to pH 7.4 + Calcium [1]: 7%
- % Change Compared to pH 7.4 + Calcium [2]: 2%
- % Change Compared to pH 7.4 + Calcium [3]: 1%

B11: 45B4 (antibody, V domains shown)
VH: B8 VH with N31D, Y32C, T97A, V100R, W105L
VL: B8 VL with I21F, N31D, V106I
notes: hybridoma mAb
- % Change Compared to pH 7.4 + Calcium [1]: 23%
- % Change Compared to pH 7.4 + Calcium [2]: 4%
- % Change Compared to pH 7.4 + Calcium [3]: 10%

B13: 65E9 (antibody, V domains shown)
VH: not shown
VL: SYELTQPPSVSVSPGQTASITCSGDKLGNKYDYWYQQKPGQSPVLVIYQDRKRPSGIPERFSGSNSGNTATLTISGTQAMDEADYYCQAWDNSTVVFGGGTKLTVL
notes: hybridoma mAb
- % Change Compared to pH 7.4 + Calcium [1]: 35%
- % Change Compared to pH 7.4 + Calcium [2]: 22%
- % Change Compared to pH 7.4 + Calcium [3]: 30%

B15: 59F2 (antibody, V domains shown)
VH: EVQLVESGGGLVQPGGSLRLSCGASGFTFSSYSMNWVRQAPGKGLEWVSYISGSSNIIYYTDSVKGRFTISRDNAKNSLYLQMNSLRDEDTAVYYCARADTPMVLYFYGMDVWGQGTTVTVSS
VL: B13 VL with N29D, D32A, Y33S, K38R, R51N, S93N
notes: hybridoma mAb
- % Change Compared to pH 7.4 + Calcium [1]: 74%
- % Change Compared to pH 7.4 + Calcium [2]: 48%
- % Change Compared to pH 7.4 + Calcium [3]: 52%

B16: 58G11 (antibody, V domains shown)
VH: EVQLVESGGGLVQPGGSLRLSCAASGFTFSSYSMNWVRQAPGKGLEWISYISTSSSTIFYADSVKGRFTISRDSAKNSLYLQMNSLRDEDTAVYYCARGDTAMVLYYYGMDVWGQGTTVTVSS
VL: B13 VL with N29D, D32A, Y33S, R51N, D91N, S93N, V96M
notes: hybridoma mAb
- % Change Compared to pH 7.4 + Calcium [1]: 51%
- % Change Compared to pH 7.4 + Calcium [2]: 38%
- % Change Compared to pH 7.4 + Calcium [3]: 12%

B17: 60D2 (antibody, V domains shown)
VH: B15 VH with G53E, K76M
VL: B13 VL with D25N, N29D, D32A, Y33S, K38R, R51N, A79T, S93N
notes: hybridoma mAb
- % Change Compared to pH 7.4 + Calcium [1]: 49%
- % Change Compared to pH 7.4 + Calcium [2]: 20%
- % Change Compared to pH 7.4 + Calcium [3]: 42%

Continued, values first:

- % Change Compared to pH 7.4 + Calcium [1]: 44%
- % Change Compared to pH 7.4 + Calcium [2]: 37%
- % Change Compared to pH 7.4 + Calcium [3]: 62%
B1: 50G9 (antibody, V domains shown)
VH: QVQLVESGGGVVQPGRSLRLSCAASGFIFSSYGMHWVRQAPGKGLEWVAVISQDGIIRYYADSVKGRFTISRDNSKNTLYLQMNSLRAEDTAVYYCARDVKQWLVRTYGMDVWGQGTTVTVSS
VL: SYELTQPPSVSVSPGQTASITCSGDKLGDKYACWYQQKPGQSPVLVIYQDSKRPSGIPERFSGSNSGNTATLTISGTQARDEAEYYCQARNSRRGVFGGGTRLTVL
notes: hybridoma mAb

- % Change Compared to pH 7.4 + Calcium [1]: 55%
- % Change Compared to pH 7.4 + Calcium [2]: 26%
- % Change Compared to pH 7.4 + Calcium [3]: 33%
B5: 32D6 (antibody, V domains shown)
VH: QVQLVESGGGVVQPGRSLRLSCAASGFTFSSYGMHWVRQAPGKGLEWVTVIWHDGSNAYYADSVKGRFTISRDNSKNTLYLQMNSLRAEDTAVYYCARENSSSYYFDYWGQGTLVTVSS
VL: DIQMTQSPSSLSTSVGDRVTITCRASQNIISYLNWYQQKPGKAPKLLMYVASRLQSGVPSRFSGSGSGTDFTLTISSLQAEDFATYYCQQSYSTPYTFGGGTKVAIK
notes: hybridoma mAb

- % Change Compared to pH 7.4 + Calcium [1]: 2%
- % Change Compared to pH 7.4 + Calcium [2]: 2%
- % Change Compared to pH 7.4 + Calcium [3]: -2%
B6: 29H8 (antibody, V domains shown)
VH: QVQLVQSGAEVQKPGASVKVSCKASGYTFTNYDINWVRQATGQGLEWMGWMNPNSGNTGYAQRFQGRVTMTRNTSISAAYMELSSLRSEDTAVYYCASSSGWYYFDYWGQGTLVTVSS
VL: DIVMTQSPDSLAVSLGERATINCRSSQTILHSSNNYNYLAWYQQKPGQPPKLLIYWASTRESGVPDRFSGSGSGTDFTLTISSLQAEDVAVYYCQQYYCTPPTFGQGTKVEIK
notes: hybridoma mAb

- % Change Compared to pH 7.4 + Calcium [1]: 1%
- % Change Compared to pH 7.4 + Calcium [2]: 1%
- % Change Compared to pH 7.4 + Calcium [3]: -3%
B7: 4A2 (antibody, V domains shown)
VH: B6 VH with A9T, Q12K, N52H, R63K, M70L, A78T
VL: DIVMTQSPDSLAVSLGERATINCKSSQSILHSSNNNNYLAWFQQKPGQPPKLLLYWASTRESGVPDRFSGSGSGTDFTLTISSLQPEDVAVYYCQQYYNTPVTFGPGTKVGIK
notes: hybridoma mAb

- % Change Compared to pH 7.4 + Calcium [1]: 38%
- % Change Compared to pH 7.4 + Calcium [2]: 5%
- % Change Compared to pH 7.4 + Calcium [3]: 25%
B12: 29E2 (antibody, V domains shown)
VH: B8 VH with Y32C, F68I, T97A, V100E
VL: B8 VL with G28A, K39R, T72I, S93N, T97S, V104L, V106I
notes: hybridoma mAb

- % Change Compared to pH 7.4 + Calcium [1]: 10%
- % Change Compared to pH 7.4 + Calcium [2]: 5%
- % Change Compared to pH 7.4 + Calcium [3]: -1%
B14: 52H1 (antibody, V domains shown)
VH: QVQLVESGGGVVQPGRSLRLSCAASGFTFSGYGMHWVRQAPGKGLEWVAVIWYDGSNKYYADSVKGRFTISRDNSKNTLYLQMNSLRAEDTAVYYCARDRVYCSSSSCSYYYYYYGMDVWGQGTTVTVSS
VL: B13 VL with S11F, C22S, N29D, D32V, Y33S
notes: hybridoma mAb

- % Change Compared to pH 7.4 + Calcium [1]: 43%
- % Change Compared to pH 7.4 + Calcium [2]: 32%
- % Change Compared to pH 7.4 + Calcium [3]: 26%
B18: 72B4 (antibody, V domains shown)
VH: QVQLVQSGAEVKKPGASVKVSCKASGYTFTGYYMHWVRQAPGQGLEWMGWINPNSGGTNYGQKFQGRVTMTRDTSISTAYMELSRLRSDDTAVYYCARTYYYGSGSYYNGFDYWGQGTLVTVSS
VL: B13 VL with N29D, D32A, Y33W, K38R, Q49E
notes: hybridoma mAb

- % Change Compared to pH 7.4 + Calcium [1]: 45%
- % Change Compared to pH 7.4 + Calcium [2]: 12%
- % Change Compared to pH 7.4 + Calcium [3]: 33%
B19: 4B3 (antibody, V domains shown)
VH: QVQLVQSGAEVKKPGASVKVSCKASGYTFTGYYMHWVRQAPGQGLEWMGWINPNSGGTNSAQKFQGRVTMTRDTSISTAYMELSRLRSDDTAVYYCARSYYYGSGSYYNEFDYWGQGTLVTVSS
VL: B13 VL with G15R, A18V, N29D, D32A, Y33C, S93N, V96I
notes: hybridoma mAb
